The RNAGym collection of RNA variant scans (doi:10.1093/nar/gkz1192)

B1: CPEB3 Ribozyme (parent)
chain: UAACAGGGGGCCACAGCAGAAGCGUUCACGUCGCAGCCCCUGUCAGAUUCUGGUGAAUCUGCGAAUUCUGCUGUAUAUCUC

Variants of: B1
Assay: self-cleavage, relative activity (ratio to wild type); higher = more cleavage; in vitro, sequencing
Method in brief: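 Relative activity compares each variant's cleaved/total read fraction with that of the unmutated ribozyme. To get these fractions, barcoded CPEB3 ribozyme libraries from rounds of error-prone PCR were transcribed with T7 RNA polymerase for 5 hours at 37°C and then given 15 min of DNase I treatment before EDTA was added. The RNAs were reverse transcribed with template switching and sequenced on Illumina, and DNA sequencing linked barcodes to variants. A minimum of 5 reads applied, and three batches were averaged.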

| Variant | self-cleavage |
| --- | --- |
| UAACAGGGGGCCACGGCAGAAGCGUUCACGUCGCAGCCCCUGUCAGAUUCCGGUGAAUCUGCGAAUUCUGCUGUAUAUCUC [A15G U51C] | 0.74 |
| UAACAGGGGGCCACGGCAGAAGCGUUCACGUCGCAGCCCCUGUCAGAUUCAGGUGAAUCUGCGAAUUCUGCUGUAUAUCUC [A15G U51A] | 0.9 |
| UAACAGGGGGCCACGGCAGAAGCGUUCACGUCGCAGCCCCUGUCAGAUUCGGGUGAAUCUGCGAAUUCUGCUGUAUAUCUC [A15G U51G] | 0.62 |
| UAACAGGGGGCCACGGCAGAAGCGUUCACGUCGCAGCCCCUGUCAGACUCUGGUGAAUCUGCGAAUUCUGCUGUAUAUCUC [A15G U48C] | 0.46 |
| UAACAGGGGGCCACGGCAGAAGCGUUCACGUCGCAGCCCCUGUCAGAAUCUGGUGAAUCUGCGAAUUCUGCUGUAUAUCUC [A15G U48A] | 0.35 |
| UAACAGGGGGCCACGGCAGAAGCGUUCACGUCGCAGCCCCUGUCAGAGUCUGGUGAAUCUGCGAAUUCUGCUGUAUAUCUC [A15G U48G] | 0.72 |
| UAACAGGGGGCCACGGCAGAAGCGUUCACGUCGCAGCCCCUGUCAGAUUCUGGUGAAUCUGCGAAUUCAGCUGUAUAUCUC [A15G U69A] | 0.35 |
| UAACAGGGGGCCACGGCAGAAGCGUUCACGUCGCAGCCCCUGUCAGAUUCUGGUGAAUCUGCGAAUUCCGCUGUAUAUCUC [A15G U69C] | 0.3 |
| UAACAGGGGGCCACGGCAGAAGCGUUCACGUCGCAGCCCCUGUCAGAUUCUGGUGAAUCUGCGAAUUCGGCUGUAUAUCUC [A15G U69G] | 0.32 |
| UAACAGGGGGCCACGGCAGAAGCGUGCACGUCGCAGCCCCUGUCAGAUUCUGGUGAAUCUGCGAAUUCUGCUGUAUAUCUC [A15G U26G] | 0.55 |
| UAACAGGGGGCCACGGCAGAAGCGUACACGUCGCAGCCCCUGUCAGAUUCUGGUGAAUCUGCGAAUUCUGCUGUAUAUCUC [A15G U26A] | 0.71 |
| UAACAGGGGGCCACGGCAGAAGCGUCCACGUCGCAGCCCCUGUCAGAUUCUGGUGAAUCUGCGAAUUCUGCUGUAUAUCUC [A15G U26C] | 0.41 |
| UAACAGGGGGCCACGGCAGAAGCGUUCACGUCGCAGCCCCUAUCAGAUUCUGGUGAAUCUGCGAAUUCUGCUGUAUAUCUC [A15G G42A] | 0.15 |
| UAACAGGGGGCCACGGCAGAAGCGUUCACGUCGCAGCCCCUCUCAGAUUCUGGUGAAUCUGCGAAUUCUGCUGUAUAUCUC [A15G G42C] | 0.25 |
| UAACAGGGGGCCACGGCAGAAGCGUUCACGACGCAGCCCCUGUCAGAUUCUGGUGAAUCUGCGAAUUCUGCUGUAUAUCUC [A15G U31A] | 0.63 |
| UAACAGGGGGCCACGGCAGAAGCGUUCACGCCGCAGCCCCUGUCAGAUUCUGGUGAAUCUGCGAAUUCUGCUGUAUAUCUC [A15G U31C] | 0.36 |
| UAACAGGGGGCCACGGCAGAAGCGUUCACGUCGCAGCCCCUGUCAGAUUCUGGUGAACCUGCGAAUUCUGCUGUAUAUCUC [A15G U58C] | 0.44 |

| Variant | self-cleavage |
| --- | --- |
| UAACAGGGGGCCACGGCAGAAGCGUUCACGUCGCAGCCCCUGUCAGAUUCUGGUGAAACUGCGAAUUCUGCUGUAUAUCUC [A15G U58A] | 0.32 |
| UAACAGGGGGCCACGGCAGAAGCGUUCACGUCGCAGCCCCUGUCAGAUUCUGGUUAAUCUGCGAAUUCUGCUGUAUAUCUC [A15G G55U] | 0.65 |
| UAACAGGGGGCCACGGCAGAAGCGUUCACGUCGCAGCCCCUGUCAGAUUCUGGUAAAUCUGCGAAUUCUGCUGUAUAUCUC [A15G G55A] | 0.66 |
| UAACAGGGGGCCACGGCAGAAGCGUUCACGUCGCAGCCCCUGUCAGAUUCUGGUGAAUCUGCAAAUUCUGCUGUAUAUCUC [A15G G63A] | 0.79 |
| UAACAGGGGGCCACGGCAGAAGCGUUCACGUCGCAGCCCCUGUCAGAUUCUGGUGAAUCUGCCAAUUCUGCUGUAUAUCUC [A15G G63C] | 0.86 |
| UAACAGGGGGCCACGGCAGAAGCGUUCACGUCGCAGCCCCUGUCAGAUUCUGGUGAAUCUGCGAACUCUGCUGUAUAUCUC [A15G U66C] | 0.37 |
| UAACAGGGGGCCACGGCAGAAGCGUUCACGUCGCAGCCCCUGUCAGAUUCUGGUGAAUCUGCGAAGUCUGCUGUAUAUCUC [A15G U66G] | 0.35 |
| UAACAGGGGGCCACGGCAGAAGCGUUCACGUCGCAGCCCCUGUCAGAUUCUGGUGAAUCUGCGAAAUCUGCUGUAUAUCUC [A15G U66A] | 0.45 |
| UAACAGGGGGCCACGGCAGAAGCGUUCACGUCGCAGCCCCUGUCAGAUUCUGGUGAAUCUGCGAAUUCUGCUGUAUAACUC [A15G U78A] | 0.96 |
| UAACAGGGGGCCACGGCAGAAGCGUUCACGUCGCAGCCCCUGUCAGAUUCUGGUGAAUCUGCGAAUACUGCUGUAUAUCUC [A15G U67A] | 0.35 |
| UAACAGGGGGCCACGGCAGAAGCGUUCACGUCGCAGCCCCUGUCAGAUUCUGGUGAAUCUGCGAAUCCUGCUGUAUAUCUC [A15G U67C] | 0.24 |
| UAACAGGGGGCCACGGCAGAAGCGUUCACGUCGCAGCCCCUGUCAGAUUCUGGUGAAUCUGCGAAUGCUGCUGUAUAUCUC [A15G U67G] | 0.4 |
| UAACAGGGGGCCACGGCAGAAGCGUUCACGUCGCAGCCCCUGUCAGAUUCUGGUGAAUCUGCGAAUUCUGCUCUAUAUCUC [A15G G73C] | 1.16 |
| UAACAGGGGGCCACGGCAGAAGCGUUCACGUCGCAGCCCCUGUCAGAUUCUGGUGAAUCUGCGAAUUCUGCUAUAUAUCUC [A15G G73A] | 1.19 |
| UAACAGGGGGCCACGGCAGAAGCGUUCACGUCGCAGCCCCUGUCAGAUUCUGGUGAAUCUACGAAUUCUGCUGUAUAUCUC [A15G G61A] | 0.34 |
| UAACAGGGGGCCACGGCAGAAGCGUUCACGUCGCAGCCCCUGUCAGAUUCUAGUGAAUCUGCGAAUUCUGCUGUAUAUCUC [A15G G52A] | 0.99 |
| UAACAGGGGGCCACGGCAGAAGCGUUCACGUCGCAGCCCCUGUCAGAUUCUCGUGAAUCUGCGAAUUCUGCUGUAUAUCUC [A15G G52C] | 0.88 |
